Reference: patent US20230365662A1
Several values for one entry are separate records, joined by “and”; a condition that tells them apart may be missing. Equal entries are not always repeated.

B1: KB001 mouse Fab VL T100Q (Fab, V domains shown)
VH: EVQLKQSGPGLVAPSQSLSITCTVSGFSLSIYSVHWVRQPPGKGLEWLGMIWGGGSSDYNSALKSRLSISKDNSKSQVFLKMNSLQTDDTAMYYCARNGNFYAMDYWGQGTSVTVSS
VL: QIVLTQSPAIMSASLGERVTMTCTASSSVSSSFLHWYQQKPGSSPQLWIYSTSNLASGVPARFSGSGSGTSYSLTISSMEAEDAATYYCHQYHHSPYIYQFGGGTKLEIK
B2: KB001 mouse Fab VL T24Q (Fab, V domains shown)
VH: EVQLKQSGPGLVAPSQSLSITCTVSGFSLSIYSVHWVRQPPGKGLEWLGMIWGGGSSDYNSALKSRLSISKDNSKSQVFLKMNSLQTDDTAMYYCARNGNFYAMDYWGQGTSVTVSS
VL: QIVLTQSPAIMSASLGERVTMTCQASSSVSSSFLHWYQQKPGSSPQLWIYSTSNLASGVPARFSGSGSGTSYSLTISSMEAEDAATYYCHQYHHSPYIYTFGGGTKLEIK
B3: KB001 mouse Fab VL T100R (Fab, V domains shown)
VH: EVQLKQSGPGLVAPSQSLSITCTVSGFSLSIYSVHWVRQPPGKGLEWLGMIWGGGSSDYNSALKSRLSISKDNSKSQVFLKMNSLQTDDTAMYYCARNGNFYAMDYWGQGTSVTVSS
VL: QIVLTQSPAIMSASLGERVTMTCTASSSVSSSFLHWYQQKPGSSPQLWIYSTSNLASGVPARFSGSGSGTSYSLTISSMEAEDAATYYCHQYHHSPYIYRFGGGTKLEIK
B4: KB001 mouse Fab VL T24N/G67D (Fab, V domains shown)
VH: EVQLKQSGPGLVAPSQSLSITCTVSGFSLSIYSVHWVRQPPGKGLEWLGMIWGGGSSDYNSALKSRLSISKDNSKSQVFLKMNSLQTDDTAMYYCARNGNFYAMDYWGQGTSVTVSS
VL: QIVLTQSPAIMSASLGERVTMTCNASSSVSSSFLHWYQQKPGSSPQLWIYSTSNLASGVPARFSGSDSGTSYSLTISSMEAEDAATYYCHQYHHSPYIYTFGGGTKLEIK
B5: KB001 mouse Fab VL T100Y (Fab, V domains shown)
VH: EVQLKQSGPGLVAPSQSLSITCTVSGFSLSIYSVHWVRQPPGKGLEWLGMIWGGGSSDYNSALKSRLSISKDNSKSQVFLKMNSLQTDDTAMYYCARNGNFYAMDYWGQGTSVTVSS
VL: QIVLTQSPAIMSASLGERVTMTCTASSSVSSSFLHWYQQKPGSSPQLWIYSTSNLASGVPARFSGSGSGTSYSLTISSMEAEDAATYYCHQYHHSPYIYYFGGGTKLEIK
B6: KB001 mouse Fab VL T100H (Fab, V domains shown)
VH: EVQLKQSGPGLVAPSQSLSITCTVSGFSLSIYSVHWVRQPPGKGLEWLGMIWGGGSSDYNSALKSRLSISKDNSKSQVFLKMNSLQTDDTAMYYCARNGNFYAMDYWGQGTSVTVSS
VL: QIVLTQSPAIMSASLGERVTMTCTASSSVSSSFLHWYQQKPGSSPQLWIYSTSNLASGVPARFSGSGSGTSYSLTISSMEAEDAATYYCHQYHHSPYIYHFGGGTKLEIK
B7: KB001 mouse Fab VL T100G (Fab, V domains shown)
VH: EVQLKQSGPGLVAPSQSLSITCTVSGFSLSIYSVHWVRQPPGKGLEWLGMIWGGGSSDYNSALKSRLSISKDNSKSQVFLKMNSLQTDDTAMYYCARNGNFYAMDYWGQGTSVTVSS
VL: QIVLTQSPAIMSASLGERVTMTCTASSSVSSSFLHWYQQKPGSSPQLWIYSTSNLASGVPARFSGSGSGTSYSLTISSMEAEDAATYYCHQYHHSPYIYGFGGGTKLEIK
B8: KB001 mouse Fab VL T100W (Fab, V domains shown)
VH: EVQLKQSGPGLVAPSQSLSITCTVSGFSLSIYSVHWVRQPPGKGLEWLGMIWGGGSSDYNSALKSRLSISKDNSKSQVFLKMNSLQTDDTAMYYCARNGNFYAMDYWGQGTSVTVSS
VL: QIVLTQSPAIMSASLGERVTMTCTASSSVSSSFLHWYQQKPGSSPQLWIYSTSNLASGVPARFSGSGSGTSYSLTISSMEAEDAATYYCHQYHHSPYIYWFGGGTKLEIK
B9: KB001 mouse Fab VL T24I (Fab, V domains shown)
VH: EVQLKQSGPGLVAPSQSLSITCTVSGFSLSIYSVHWVRQPPGKGLEWLGMIWGGGSSDYNSALKSRLSISKDNSKSQVFLKMNSLQTDDTAMYYCARNGNFYAMDYWGQGTSVTVSS
VL: QIVLTQSPAIMSASLGERVTMTCIASSSVSSSFLHWYQQKPGSSPQLWIYSTSNLASGVPARFSGSGSGTSYSLTISSMEAEDAATYYCHQYHHSPYIYTFGGGTKLEIK
B10: KB001 mouse Fab VL T24G (Fab, V domains shown)
VH: EVQLKQSGPGLVAPSQSLSITCTVSGFSLSIYSVHWVRQPPGKGLEWLGMIWGGGSSDYNSALKSRLSISKDNSKSQVFLKMNSLQTDDTAMYYCARNGNFYAMDYWGQGTSVTVSS
VL: QIVLTQSPAIMSASLGERVTMTCGASSSVSSSFLHWYQQKPGSSPQLWIYSTSNLASGVPARFSGSGSGTSYSLTISSMEAEDAATYYCHQYHHSPYIYTFGGGTKLEIK
B11: KB001 mouse Fab VL A25G (Fab, V domains shown)
VH: EVQLKQSGPGLVAPSQSLSITCTVSGFSLSIYSVHWVRQPPGKGLEWLGMIWGGGSSDYNSALKSRLSISKDNSKSQVFLKMNSLQTDDTAMYYCARNGNFYAMDYWGQGTSVTVSS
VL: QIVLTQSPAIMSASLGERVTMTCTGSSSVSSSFLHWYQQKPGSSPQLWIYSTSNLASGVPARFSGSGSGTSYSLTISSMEAEDAATYYCHQYHHSPYIYTFGGGTKLEIK
B12: KB001 mouse Fab VL T24N (Fab, V domains shown)
VH: EVQLKQSGPGLVAPSQSLSITCTVSGFSLSIYSVHWVRQPPGKGLEWLGMIWGGGSSDYNSALKSRLSISKDNSKSQVFLKMNSLQTDDTAMYYCARNGNFYAMDYWGQGTSVTVSS
VL: QIVLTQSPAIMSASLGERVTMTCNASSSVSSSFLHWYQQKPGSSPQLWIYSTSNLASGVPARFSGSGSGTSYSLTISSMEAEDAATYYCHQYHHSPYIYTFGGGTKLEIK
B13: KB001 mouse Fab VL T24A (Fab, V domains shown)
VH: EVQLKQSGPGLVAPSQSLSITCTVSGFSLSIYSVHWVRQPPGKGLEWLGMIWGGGSSDYNSALKSRLSISKDNSKSQVFLKMNSLQTDDTAMYYCARNGNFYAMDYWGQGTSVTVSS
VL: QIVLTQSPAIMSASLGERVTMTCAASSSVSSSFLHWYQQKPGSSPQLWIYSTSNLASGVPARFSGSGSGTSYSLTISSMEAEDAATYYCHQYHHSPYIYTFGGGTKLEIK
B14: KB001 mouse Fab VL T100E (Fab, V domains shown)
VH: EVQLKQSGPGLVAPSQSLSITCTVSGFSLSIYSVHWVRQPPGKGLEWLGMIWGGGSSDYNSALKSRLSISKDNSKSQVFLKMNSLQTDDTAMYYCARNGNFYAMDYWGQGTSVTVSS
VL: QIVLTQSPAIMSASLGERVTMTCTASSSVSSSFLHWYQQKPGSSPQLWIYSTSNLASGVPARFSGSGSGTSYSLTISSMEAEDAATYYCHQYHHSPYIYEFGGGTKLEIK
B15: KB001 mouse Fab VL T100M (Fab, V domains shown)
VH: EVQLKQSGPGLVAPSQSLSITCTVSGFSLSIYSVHWVRQPPGKGLEWLGMIWGGGSSDYNSALKSRLSISKDNSKSQVFLKMNSLQTDDTAMYYCARNGNFYAMDYWGQGTSVTVSS
VL: QIVLTQSPAIMSASLGERVTMTCTASSSVSSSFLHWYQQKPGSSPQLWIYSTSNLASGVPARFSGSGSGTSYSLTISSMEAEDAATYYCHQYHHSPYIYMFGGGTKLEIK
B16: KB001 mouse Fab VL T24K/R18S (Fab, V domains shown)
VH: EVQLKQSGPGLVAPSQSLSITCTVSGFSLSIYSVHWVRQPPGKGLEWLGMIWGGGSSDYNSALKSRLSISKDNSKSQVFLKMNSLQTDDTAMYYCARNGNFYAMDYWGQGTSVTVSS
VL: QIVLTQSPAIMSASLGESVTMTCKASSSVSSSFLHWYQQKPGSSPQLWIYSTSNLASGVPARFSGSGSGTSYSLTISSMEAEDAATYYCHQYHHSPYIYTFGGGTKLEIK
B17: KB001 mouse Fab VL T100S (Fab, V domains shown)
VH: EVQLKQSGPGLVAPSQSLSITCTVSGFSLSIYSVHWVRQPPGKGLEWLGMIWGGGSSDYNSALKSRLSISKDNSKSQVFLKMNSLQTDDTAMYYCARNGNFYAMDYWGQGTSVTVSS
VL: QIVLTQSPAIMSASLGERVTMTCTASSSVSSSFLHWYQQKPGSSPQLWIYSTSNLASGVPARFSGSGSGTSYSLTISSMEAEDAATYYCHQYHHSPYIYSFGGGTKLEIK
B18: KB001 mouse Fab VL T100F (Fab, V domains shown)
VH: EVQLKQSGPGLVAPSQSLSITCTVSGFSLSIYSVHWVRQPPGKGLEWLGMIWGGGSSDYNSALKSRLSISKDNSKSQVFLKMNSLQTDDTAMYYCARNGNFYAMDYWGQGTSVTVSS
VL: QIVLTQSPAIMSASLGERVTMTCTASSSVSSSFLHWYQQKPGSSPQLWIYSTSNLASGVPARFSGSGSGTSYSLTISSMEAEDAATYYCHQYHHSPYIYFFGGGTKLEIK
B19: KB001 mouse Fab VL T100L (Fab, V domains shown)
VH: EVQLKQSGPGLVAPSQSLSITCTVSGFSLSIYSVHWVRQPPGKGLEWLGMIWGGGSSDYNSALKSRLSISKDNSKSQVFLKMNSLQTDDTAMYYCARNGNFYAMDYWGQGTSVTVSS
VL: QIVLTQSPAIMSASLGERVTMTCTASSSVSSSFLHWYQQKPGSSPQLWIYSTSNLASGVPARFSGSGSGTSYSLTISSMEAEDAATYYCHQYHHSPYIYLFGGGTKLEIK
B20: KB001 mouse Fab VL T24L (Fab, V domains shown)
VH: EVQLKQSGPGLVAPSQSLSITCTVSGFSLSIYSVHWVRQPPGKGLEWLGMIWGGGSSDYNSALKSRLSISKDNSKSQVFLKMNSLQTDDTAMYYCARNGNFYAMDYWGQGTSVTVSS
VL: QIVLTQSPAIMSASLGERVTMTCLASSSVSSSFLHWYQQKPGSSPQLWIYSTSNLASGVPARFSGSGSGTSYSLTISSMEAEDAATYYCHQYHHSPYIYTFGGGTKLEIK
B21: KB001 mouse Fab VL A25Y (Fab, V domains shown)
VH: EVQLKQSGPGLVAPSQSLSITCTVSGFSLSIYSVHWVRQPPGKGLEWLGMIWGGGSSDYNSALKSRLSISKDNSKSQVFLKMNSLQTDDTAMYYCARNGNFYAMDYWGQGTSVTVSS
VL: QIVLTQSPAIMSASLGERVTMTCTYSSSVSSSFLHWYQQKPGSSPQLWIYSTSNLASGVPARFSGSGSGTSYSLTISSMEAEDAATYYCHQYHHSPYIYTFGGGTKLEIK

Target: HRgpA-6H (Porphyromonas gingivalis) (UniProt P28784)
Test: ELISA, FASEBA Fab on coated HRgpA-6H

Chain of UniProt P28784 (P28784 228-991): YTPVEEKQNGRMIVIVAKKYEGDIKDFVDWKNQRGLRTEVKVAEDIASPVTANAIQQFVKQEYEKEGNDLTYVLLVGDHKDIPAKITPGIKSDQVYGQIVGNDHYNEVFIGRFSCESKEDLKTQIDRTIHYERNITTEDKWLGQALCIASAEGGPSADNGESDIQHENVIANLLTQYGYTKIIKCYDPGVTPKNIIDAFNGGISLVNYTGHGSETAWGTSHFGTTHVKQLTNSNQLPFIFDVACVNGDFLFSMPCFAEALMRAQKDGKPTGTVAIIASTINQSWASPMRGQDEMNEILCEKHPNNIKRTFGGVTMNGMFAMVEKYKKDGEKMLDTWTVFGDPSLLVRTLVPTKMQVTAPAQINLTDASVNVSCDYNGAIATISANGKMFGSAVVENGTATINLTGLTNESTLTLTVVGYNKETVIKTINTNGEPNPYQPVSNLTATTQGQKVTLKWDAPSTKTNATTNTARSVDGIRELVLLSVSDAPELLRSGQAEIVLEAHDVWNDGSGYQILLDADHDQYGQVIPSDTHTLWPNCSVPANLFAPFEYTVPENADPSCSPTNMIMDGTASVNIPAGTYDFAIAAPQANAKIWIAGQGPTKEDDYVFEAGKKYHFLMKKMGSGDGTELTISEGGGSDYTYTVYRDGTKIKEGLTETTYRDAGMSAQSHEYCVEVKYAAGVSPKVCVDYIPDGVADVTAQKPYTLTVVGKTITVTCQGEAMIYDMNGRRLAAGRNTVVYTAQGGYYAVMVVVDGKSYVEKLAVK

Row | Binder | OD450nm | Ratio OD(Variant)/OD(WT)
1 | B1 | 0.586 and 0.596 and 0.604 | 1.12 and 1.14 and 1.15
2 | B2 | 0.765 | 0.995
3 | B3 | 0.616 | 1.18
4 | B4 | 0.755 | 0.982
5 | B5 | 0.546 | 1.04
6 | B6 | 0.597 and 0.631 | 1.14 and 1.21
7 | B7 | 0.603 and 0.597 | 1.15 and 1.14
8 | B8 | 0.585 | 1.12
9 | B9 | 0.741 | 0.964
10 | B10 | 0.686 and 0.735 | 0.892 and 0.956
11 | B11 | 0.668 and 0.699 and 0.673 | 0.853 and 0.893 and 0.86
12 | B12 | 0.715 and 0.8 | 0.93 and 1.04
13 | B13 | 0.757 | 0.984
14 | B14 | 0.613 and 0.621 and 0.674 | 1.17 and 1.19 and 1.29
15 | B15 | 0.589 | 1.12
16 | B16 | 0.761 | 0.99
17 | B17 | 0.602 and 0.664 and 0.625 | 1.15 and 1.27 and 1.19
18 | B18 | 0.552 | 1.05
19 | B19 | 0.587 and 0.566 | 1.12 and 1.08
20 | B20 | 0.753 and 0.752 and 0.667 | 0.979 and 0.978 and 0.867
21 | B21 | 0.755 and 0.757 | 0.964 and 0.967
